Laboratory results reported in US20200262877A1, “ION CHANNEL-BINDING PEPTIDES AND METHODS OF USE THEREOF” (priority 2017, published 2020).

What was measured:
GABA = test: Ion channel panel (IonWorks Barracuda): GABA; format: cell-based; conditions: 100% = no change, <100% = inhibition
Summary of the method: (§1)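 Peptides were tested in duplicate at final 20 μM and 200 nM, with concentration set by amino acid analysis, in HEPES-buffered saline. They were applied for at least 5 min to HEK293 or CHO cells transfected with each channel. Currents were expressed as % inhibition, 1-(Ipeptide/Icontrol)×100, or % activation, Ipeptide/Icontrol×100, against a channel-matched reference compound.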

Nav1.7 = biological target: T1, Nav1.7 (Homo sapiens, UniProt Q15858); test: cell-based; format: cell-based; conditions: 100% = no change; for Activity of Nav1.7 with peptide, expressed as a percentage of the reference compound: peptide at 0.2 μM; for Activity of Nav1.7 with peptide (percentage of the reference compound): peptide at 20 μM
T1 construct: host or cells: HEK293 or CHO
T1 sequence (Q15858 whole entry): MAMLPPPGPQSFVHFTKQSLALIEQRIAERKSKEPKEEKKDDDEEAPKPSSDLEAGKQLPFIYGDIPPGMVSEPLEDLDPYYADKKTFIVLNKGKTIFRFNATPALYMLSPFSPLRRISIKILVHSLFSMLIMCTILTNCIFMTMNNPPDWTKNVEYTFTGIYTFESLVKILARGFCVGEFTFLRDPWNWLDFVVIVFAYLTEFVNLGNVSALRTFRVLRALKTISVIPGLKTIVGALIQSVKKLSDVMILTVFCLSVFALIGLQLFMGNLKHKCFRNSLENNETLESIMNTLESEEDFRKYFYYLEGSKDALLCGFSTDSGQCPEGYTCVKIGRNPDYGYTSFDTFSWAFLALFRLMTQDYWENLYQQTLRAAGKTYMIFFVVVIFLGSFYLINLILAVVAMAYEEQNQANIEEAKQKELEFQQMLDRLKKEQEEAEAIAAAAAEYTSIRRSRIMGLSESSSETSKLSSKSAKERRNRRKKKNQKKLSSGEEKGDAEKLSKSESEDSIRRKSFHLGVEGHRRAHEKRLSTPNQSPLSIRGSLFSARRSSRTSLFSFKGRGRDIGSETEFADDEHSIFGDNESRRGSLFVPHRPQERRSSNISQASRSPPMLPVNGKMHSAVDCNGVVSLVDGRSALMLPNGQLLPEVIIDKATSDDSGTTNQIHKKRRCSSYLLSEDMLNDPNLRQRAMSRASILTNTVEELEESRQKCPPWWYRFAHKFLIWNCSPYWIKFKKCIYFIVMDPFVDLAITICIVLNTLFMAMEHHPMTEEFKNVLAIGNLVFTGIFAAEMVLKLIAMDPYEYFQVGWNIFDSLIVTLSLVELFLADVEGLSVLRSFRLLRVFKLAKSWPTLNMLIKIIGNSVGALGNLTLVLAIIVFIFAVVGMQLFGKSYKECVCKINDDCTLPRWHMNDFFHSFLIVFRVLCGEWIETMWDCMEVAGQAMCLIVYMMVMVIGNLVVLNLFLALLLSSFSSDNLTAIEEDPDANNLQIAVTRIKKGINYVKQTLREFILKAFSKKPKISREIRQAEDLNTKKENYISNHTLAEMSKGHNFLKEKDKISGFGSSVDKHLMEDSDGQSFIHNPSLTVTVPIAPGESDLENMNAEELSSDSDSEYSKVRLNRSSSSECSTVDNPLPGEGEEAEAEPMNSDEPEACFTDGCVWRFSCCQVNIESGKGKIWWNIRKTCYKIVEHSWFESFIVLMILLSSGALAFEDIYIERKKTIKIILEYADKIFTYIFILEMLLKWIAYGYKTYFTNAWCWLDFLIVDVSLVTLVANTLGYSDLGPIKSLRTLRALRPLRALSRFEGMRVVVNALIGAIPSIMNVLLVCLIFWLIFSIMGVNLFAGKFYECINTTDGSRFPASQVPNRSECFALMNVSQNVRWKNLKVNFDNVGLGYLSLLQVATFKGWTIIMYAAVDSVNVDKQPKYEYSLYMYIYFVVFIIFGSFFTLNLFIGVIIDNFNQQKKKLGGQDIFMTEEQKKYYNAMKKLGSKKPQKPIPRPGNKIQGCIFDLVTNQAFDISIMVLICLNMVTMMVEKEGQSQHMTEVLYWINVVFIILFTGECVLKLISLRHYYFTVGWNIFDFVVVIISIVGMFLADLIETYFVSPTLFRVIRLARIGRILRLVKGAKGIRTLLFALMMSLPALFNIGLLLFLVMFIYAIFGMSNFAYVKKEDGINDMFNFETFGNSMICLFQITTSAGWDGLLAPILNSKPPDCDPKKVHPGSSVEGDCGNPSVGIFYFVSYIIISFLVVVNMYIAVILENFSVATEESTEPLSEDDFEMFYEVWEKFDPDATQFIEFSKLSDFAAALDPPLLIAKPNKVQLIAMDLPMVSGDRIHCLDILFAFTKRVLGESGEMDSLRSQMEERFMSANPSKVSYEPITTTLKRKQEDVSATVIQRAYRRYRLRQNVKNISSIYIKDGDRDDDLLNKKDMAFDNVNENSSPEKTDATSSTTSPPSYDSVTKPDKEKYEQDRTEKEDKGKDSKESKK

Kir2.1 = biological target: T2, Kir2.1 (Homo sapiens, UniProt P63252); test: Ion channel panel (IonWorks Barracuda): Kir2.1; format: cell-based; conditions: 100% = no change, <100% = inhibition
T2 construct: host or cells: HEK293 or CHO
Summary of the method: as §1

Kv1.2 = biological target: T3, Kv1.2 (Homo sapiens, UniProt P16389); test: cell-based; format: cell-based; conditions: 100% = no change, <100% = inhibition
T3 construct: host or cells: HEK293 or CHO
T3 sequence (P16389 whole entry): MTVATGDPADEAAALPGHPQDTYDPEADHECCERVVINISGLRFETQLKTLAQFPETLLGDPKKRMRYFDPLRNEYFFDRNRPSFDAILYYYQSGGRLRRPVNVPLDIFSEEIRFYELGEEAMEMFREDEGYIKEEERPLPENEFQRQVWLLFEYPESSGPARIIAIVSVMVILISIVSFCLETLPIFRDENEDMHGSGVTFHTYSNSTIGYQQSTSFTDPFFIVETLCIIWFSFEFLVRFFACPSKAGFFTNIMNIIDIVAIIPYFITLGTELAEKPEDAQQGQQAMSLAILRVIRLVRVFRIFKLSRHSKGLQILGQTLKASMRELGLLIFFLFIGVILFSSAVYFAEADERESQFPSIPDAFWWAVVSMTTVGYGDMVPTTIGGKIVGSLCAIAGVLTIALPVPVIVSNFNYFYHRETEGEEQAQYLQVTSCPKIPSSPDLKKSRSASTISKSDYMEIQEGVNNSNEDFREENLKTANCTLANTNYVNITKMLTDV
Summary of the method: as §1

Kv1.3 = biological target: T4, Kv1.3 (Homo sapiens, UniProt P22001); test: cell-based; format: cell-based; conditions: 100% = no change, <100% = inhibition
T4 construct: host or cells: HEK293 or CHO
Summary of the method: as §1

Kv1.1 = biological target: T5, Kv1.1 (Homo sapiens, UniProt Q09470); test: cell-based; format: cell-based; conditions: 100% = no change, <100% = inhibition
T5 construct: host or cells: HEK293 or CHO
T5 sequence (Q09470 whole entry): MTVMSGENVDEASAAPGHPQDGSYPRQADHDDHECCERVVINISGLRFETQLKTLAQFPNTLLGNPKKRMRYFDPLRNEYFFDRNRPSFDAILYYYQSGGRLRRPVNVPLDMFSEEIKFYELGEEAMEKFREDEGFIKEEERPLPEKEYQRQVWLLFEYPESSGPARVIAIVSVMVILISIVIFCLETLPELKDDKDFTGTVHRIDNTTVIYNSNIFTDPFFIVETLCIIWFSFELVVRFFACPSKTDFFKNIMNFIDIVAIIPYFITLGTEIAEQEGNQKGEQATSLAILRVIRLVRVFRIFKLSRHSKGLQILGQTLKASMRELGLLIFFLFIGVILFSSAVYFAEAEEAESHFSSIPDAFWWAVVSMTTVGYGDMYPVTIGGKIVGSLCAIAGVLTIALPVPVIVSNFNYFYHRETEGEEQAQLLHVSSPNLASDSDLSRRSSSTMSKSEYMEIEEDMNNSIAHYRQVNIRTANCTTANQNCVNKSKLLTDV
Summary of the method: as §1

Kv2.1 = biological target: T6, Kv2.1 (Homo sapiens, UniProt Q14721); test: cell-based; conditions: 100% = no change, <100% = inhibition
T6 construct: host or cells: HEK293 or CHO
Summary of the method: as §1

Cav2.1 = biological target: T7, Cav2.1 (Homo sapiens, UniProt O00555); test: cell-based; conditions: 100% = no change, <100% = inhibition
T7 construct: host or cells: HEK293 or CHO
Summary of the method: as §1

Cav2.2 = biological target: T8, Cav2.2 (Homo sapiens, UniProt Q00975); test: cell-based; conditions: 100% = no change, <100% = inhibition
T8 construct: host or cells: HEK293 or CHO
Summary of the method: as §1

NR2A = biological target: T9, NR2A (Homo sapiens, UniProt Q12879); test: Ion channel panel (IonWorks Barracuda): NR2A; format: cell-based; conditions: 100% = no change, <100% = inhibition
T9 construct: host or cells: HEK293 or CHO
Summary of the method: as §1

α3β4 = biological target: T10, α3β4 (Homo sapiens, UniProt P30926+P32297); test: Ion channel panel (IonWorks Barracuda): α3β4; format: cell-based; conditions: 100% = no change, <100% = inhibition
T10 construct: host or cells: HEK293 or CHO
Summary of the method: as §1

TRPV1 = biological target: T11, TRPV1 (Homo sapiens, UniProt Q8NER1); test: Ion channel panel (IonWorks Barracuda): TRPV1; format: cell-based; conditions: 100% = no change, <100% = inhibition
T11 construct: host or cells: HEK293 or CHO
Summary of the method: as §1

Nav1.5 = Nav1.5 (Homo sapiens, UniProt Q14524); test: in vitro; conditions: 100% = no change; for Activity of Nav1.5 with peptide, expressed as a percentage of the reference compound: peptide at 0.2 μM; for Activity of Nav1.5 with peptide (percentage of the reference compound): peptide at 20 μM
Chain of Nav1.5 (Q14524 whole entry): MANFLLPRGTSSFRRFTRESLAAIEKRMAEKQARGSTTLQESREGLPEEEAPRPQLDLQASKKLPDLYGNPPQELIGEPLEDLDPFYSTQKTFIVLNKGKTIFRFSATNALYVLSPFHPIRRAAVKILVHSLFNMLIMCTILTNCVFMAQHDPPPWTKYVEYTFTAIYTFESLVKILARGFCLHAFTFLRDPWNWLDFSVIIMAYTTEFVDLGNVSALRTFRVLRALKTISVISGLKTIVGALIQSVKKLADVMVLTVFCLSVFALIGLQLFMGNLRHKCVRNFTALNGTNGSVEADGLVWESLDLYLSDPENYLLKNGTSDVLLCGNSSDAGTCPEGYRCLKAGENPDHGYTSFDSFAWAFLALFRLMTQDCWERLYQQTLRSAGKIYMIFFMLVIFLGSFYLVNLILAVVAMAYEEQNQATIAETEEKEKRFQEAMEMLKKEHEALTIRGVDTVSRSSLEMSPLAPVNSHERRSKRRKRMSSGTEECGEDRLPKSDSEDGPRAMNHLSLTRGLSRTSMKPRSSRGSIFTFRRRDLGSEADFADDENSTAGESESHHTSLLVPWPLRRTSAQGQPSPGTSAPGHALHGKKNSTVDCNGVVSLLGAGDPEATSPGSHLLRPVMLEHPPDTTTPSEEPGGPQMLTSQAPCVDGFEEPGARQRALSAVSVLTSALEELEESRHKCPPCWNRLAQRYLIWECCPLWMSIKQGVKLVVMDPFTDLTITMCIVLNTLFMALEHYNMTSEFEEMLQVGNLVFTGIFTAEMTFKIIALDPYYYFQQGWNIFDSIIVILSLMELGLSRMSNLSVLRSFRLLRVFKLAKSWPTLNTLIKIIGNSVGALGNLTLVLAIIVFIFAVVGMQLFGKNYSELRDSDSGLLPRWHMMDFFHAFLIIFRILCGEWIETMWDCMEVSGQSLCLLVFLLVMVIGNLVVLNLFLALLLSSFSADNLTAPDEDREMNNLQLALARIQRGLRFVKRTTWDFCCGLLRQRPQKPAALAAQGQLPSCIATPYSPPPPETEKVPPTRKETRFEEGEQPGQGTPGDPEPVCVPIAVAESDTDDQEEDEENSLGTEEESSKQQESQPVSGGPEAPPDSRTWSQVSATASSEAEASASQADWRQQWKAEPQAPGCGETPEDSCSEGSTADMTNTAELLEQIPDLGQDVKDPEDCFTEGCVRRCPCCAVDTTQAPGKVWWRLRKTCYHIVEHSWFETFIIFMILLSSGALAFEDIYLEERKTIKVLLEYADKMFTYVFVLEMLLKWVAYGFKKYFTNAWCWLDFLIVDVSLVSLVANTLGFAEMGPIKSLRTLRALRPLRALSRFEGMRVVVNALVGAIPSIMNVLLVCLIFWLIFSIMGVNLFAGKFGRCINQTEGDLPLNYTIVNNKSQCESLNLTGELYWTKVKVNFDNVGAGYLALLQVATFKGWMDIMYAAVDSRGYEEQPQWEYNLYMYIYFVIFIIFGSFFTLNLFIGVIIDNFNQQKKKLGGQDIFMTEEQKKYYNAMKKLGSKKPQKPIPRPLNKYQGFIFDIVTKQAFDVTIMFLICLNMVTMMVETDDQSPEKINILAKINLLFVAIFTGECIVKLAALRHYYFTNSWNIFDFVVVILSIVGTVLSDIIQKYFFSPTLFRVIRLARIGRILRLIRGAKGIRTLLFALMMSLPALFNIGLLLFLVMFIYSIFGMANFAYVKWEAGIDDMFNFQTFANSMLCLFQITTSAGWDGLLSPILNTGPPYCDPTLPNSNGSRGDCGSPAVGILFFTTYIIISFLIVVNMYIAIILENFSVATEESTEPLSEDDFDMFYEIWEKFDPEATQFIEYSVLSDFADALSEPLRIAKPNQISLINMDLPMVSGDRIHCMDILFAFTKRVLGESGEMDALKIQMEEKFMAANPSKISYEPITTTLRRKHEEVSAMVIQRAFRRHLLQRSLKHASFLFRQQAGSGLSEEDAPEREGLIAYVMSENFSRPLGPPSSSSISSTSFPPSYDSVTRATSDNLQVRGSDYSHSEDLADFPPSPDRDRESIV
Summary of the method: as §1

hERG = hERG (Homo sapiens, UniProt Q12809); test: in vitro; conditions: 100% = no change, <100% = inhibition
Summary of the method: as §1

NR2B = biological target: T12, NR2B (Homo sapiens, UniProt Q13224); test: Ion channel panel (IonWorks Barracuda): NR2B; format: cell-based; conditions: 100% = no change, <100% = inhibition
T12 construct: host or cells: HEK293 or CHO
Summary of the method: as §1

5HT3a = biological target: T13, 5HT3a (Homo sapiens, UniProt P46098); test: Ion channel panel (IonWorks Barracuda): 5HT3a; format: cell-based
T13 construct: host or cells: HEK293 or CHO
T13 sequence (P46098 whole entry, looked up): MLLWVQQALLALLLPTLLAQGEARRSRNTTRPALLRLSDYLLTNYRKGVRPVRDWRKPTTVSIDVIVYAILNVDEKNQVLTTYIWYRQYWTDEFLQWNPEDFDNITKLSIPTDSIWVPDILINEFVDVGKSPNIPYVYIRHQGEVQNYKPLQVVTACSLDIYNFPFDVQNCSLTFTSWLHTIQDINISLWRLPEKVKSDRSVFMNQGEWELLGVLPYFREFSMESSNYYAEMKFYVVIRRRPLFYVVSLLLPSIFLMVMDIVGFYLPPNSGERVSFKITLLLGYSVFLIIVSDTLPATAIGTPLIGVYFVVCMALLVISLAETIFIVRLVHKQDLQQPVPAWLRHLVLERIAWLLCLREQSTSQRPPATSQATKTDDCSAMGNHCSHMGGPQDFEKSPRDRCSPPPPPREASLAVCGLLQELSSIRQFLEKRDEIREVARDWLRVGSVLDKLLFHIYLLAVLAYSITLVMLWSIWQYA
Summary of the method: as §1

α4β2 = biological target: T14, α4β2 (Homo sapiens, UniProt P17787+P43681); test: Ion channel panel (IonWorks Barracuda): α4β2; format: cell-based; conditions: 100% = no change, <100% = inhibition
T14 construct: host or cells: HEK293 or CHO
Summary of the method: as §1

TRPA1 = biological target: T15, TRPA1 (Homo sapiens, UniProt O75762); test: Ion channel panel (IonWorks Barracuda): TRPA1; format: cell-based; conditions: 100% = no change, <100% = inhibition
T15 construct: host or cells: HEK293 or CHO
Summary of the method: as §1

[1] = first of two Nav1.7 columns (probably TP1)
[2] = second of two Nav1.7 columns (probably TP2)
[3] = first of two Nav1.5 columns (probably TP1)
[4] = second of two Nav1.5 columns (probably TP2)

14 (GSDRDSCIDKSRCSKYGYYQECQDCCKKAGHNGGTCMFFKCKCA) [compound 14]
Activity of GABA with peptide, expressed as a percentage of the reference compound (GABA; peptide at 0.2 μM): 107%
Activity of GABA with peptide (percentage of the reference compound) (GABA; peptide at 20 μM): 120%
Activity of Nav1.7 with peptide, expressed as a percentage of the reference compound (Nav1.7; [1]): 83%
Activity of Nav1.7 with peptide, expressed as a percentage of the reference compound (Nav1.7; [2]): 89%
Activity of Nav1.7 with peptide (percentage of the reference compound) (Nav1.7; [1]): 72%
Activity of Nav1.7 with peptide (percentage of the reference compound) (Nav1.7; [2]): 65%
Activity of Kir2.1 with peptide, expressed as a percentage of the reference compound (Kir2.1; peptide at 0.2 μM): 95%
Activity of Kir2.1 with peptide (percentage of the reference compound) (Kir2.1; peptide at 20 μM): 79%
Activity of Kv1.2 with peptide, expressed as a percentage of the reference compound (Kv1.2; peptide at 0.2 μM): 73%
Activity of Kv1.2 with peptide (percentage of the reference compound) (Kv1.2; peptide at 20 μM): 34%
Activity of Kv1.3 with peptide, expressed as a percentage of the reference compound (Kv1.3; peptide at 0.2 μM): 87%
Activity of Kv1.3 with peptide (percentage of the reference compound) (Kv1.3; peptide at 20 μM): 82%
Activity of Kv1.1 with peptide, expressed as a percentage of the reference compound (Kv1.1; peptide at 0.2 μM): 79%
Activity of Kv1.1 with peptide (percentage of the reference compound) (Kv1.1; peptide at 20 μM): 99%
Activity of Kv2.1 with peptide, expressed as a percentage of the reference compound (Kv2.1; peptide at 0.2 μM): 109%
Activity of Kv2.1 with peptide (percentage of the reference compound) (Kv2.1; peptide at 20 μM): 93%
Activity of Cav2.1 with peptide, expressed as a percentage of the reference compound (Cav2.1; peptide at 0.2 μM): 118%
Activity of Cav2.1 with peptide (percentage of the reference compound) (Cav2.1; peptide at 20 μM): 111%
Activity of Cav2.2 with peptide, expressed as a percentage of the reference compound (Cav2.2; peptide at 0.2 μM): 129%
Activity of Cav2.2 with peptide (percentage of the reference compound) (Cav2.2; peptide at 20 μM): 95%
Activity of NR2A with peptide, expressed as a percentage of the reference compound (NR2A; peptide at 0.2 μM): 107%
Activity of NR2A with peptide (percentage of the reference compound) (NR2A; peptide at 20 μM): 95%
Activity of a3b4 with peptide, expressed as a percentage of the reference compound (α3β4; peptide at 0.2 μM): 99%
Activity of a3b4 with peptide (percentage of the reference compound) (α3β4; peptide at 20 μM): 93%
Activity of TRPV1 with peptide, expressed as a percentage of the reference compound (TRPV1; peptide at 0.2 μM): 133%
Activity of TRPV1 with peptide (percentage of the reference compound) (TRPV1; peptide at 20 μM): 92%
Activity of Nav1.5 with peptide, expressed as a percentage of the reference compound (Nav1.5; [3]): 85%
Activity of Nav1.5 with peptide, expressed as a percentage of the reference compound (Nav1.5; [4]): 82%
Activity of Nav1.5 with peptide (percentage of the reference compound) (Nav1.5; [3]): 94%
Activity of Nav1.5 with peptide (percentage of the reference compound) (Nav1.5; [4]): 97%
Activity of hERG with peptide, expressed as a percentage of the reference compound (hERG; peptide at 0.2 μM): 82%
Activity of hERG with peptide (percentage of the reference compound) (hERG; peptide at 20 μM): 1%
Activity of NR2B with peptide, expressed as a percentage of the reference compound (NR2B; peptide at 0.2 μM): 123%
Activity of NR2B with peptide (percentage of the reference compound) (NR2B; peptide at 20 μM): 72%
Activity of 5HT3a with peptide (percentage of the reference compound) (5HT3a): 78%
Activity of 5HT3a with peptide, expressed as a percentage of the reference compound (5HT3a): 96%
Activity of a4b2 with peptide, expressed as a percentage of the reference compound (α4β2; peptide at 0.2 μM): 106%
Activity of a4b2 with peptide (percentage of the reference compound) (α4β2; peptide at 20 μM): 81%
Activity of TRPA1 with peptide, expressed as a percentage of the reference compound (TRPA1; peptide at 0.2 μM): 106%
Activity of TRPA1 with peptide (percentage of the reference compound) (TRPA1; peptide at 20 μM): 66%
